From the supplement of paper PMC10567573

B1: OAS1 (parent)
chain: YIGTHEYPHFSHRPSTLQAASTPQ
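Note: lentivirally expressed fusions sorted by FACS into six bins by GFP to DsRed ratio, PSI derived from sequencing read proportions per bin multiplied by bin number.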

Variants of: B1
Experiment: protein stability index of a GFP-peptide fusion (GPS, HEK-293T) (PSI 1-6); higher = more stable
Settings: c terminus: a fixed tail appended
For YIGTHEYPHFSHRPSTLEAASTPQ, the protein stability index was 2.22. In the case of YIGTHEYPHFSHRPSTLCAASTPQ, the protein stability index is reported as 2.08. Work on YIGTHEYPHFSHRPSTLSAASTPQ yielded a protein stability index of 1.65. For YIGTHEYPHFSHRPSTLHAASTPQ, the protein stability index was 2.38. YIGTHEYPHFSHRPSTLYAASTPQ showed a protein stability index of 2.37. With YIGTHEYPHFSHRPSTLRAASTPQ the protein stability index was 1.95. With YIGTHEYPHFSHRPSTLFAASTPQ the protein stability index was 2.25. Work on YIGTHEYPHFSHRPSTLWAASTPQ yielded a protein stability index of 2.75. Variant YIGTHEYPHFSHRPSTLVAASTPQ has a protein stability index of 1.99. Variant YIGTHEYPHFSHRPSTLDAASTPQ has a protein stability index of 1.71. Variant YIGTHEYPHFSHRPSTLNAASTPQ has a protein stability index of 2.34. With YIGTHEYPHFSHRPSTLAAASTPQ the protein stability index was 2.85. Work on YIGTHEYPHFSHRPSTLKAASTPQ yielded a protein stability index of 2.04. YIGTHEYPHFSHRPSTLGAASTPQ gave a protein stability index of 2.06. In the case of YIGTHEYPHFSHRPSTLPAASTPQ, the protein stability index is reported as 1.81. Variant YIGTHEYPHFSHRPSTLLAASTPQ has a protein stability index of 2.08. In the case of YIGTHEYPHFSHRPSTLMAASTPQ, the protein stability index is reported as 1.74. Variant YIGTHEYPHFSHRPSTLTAASTPQ has a protein stability index of 1.9. YIGTHEYPHFSHRPSTLIAASTPQ gave a protein stability index of 1.94. With YIGTHEYPHFSHRPSHLQAASTPQ the protein stability index was 2.02. With YIGTHEYPHFSHRPSNLQAASTPQ the protein stability index was 1.62. With YIGTHEYPHFSHRPSRLQAASTPQ the protein stability index was 2.4. Variant YIGTHEYPHFSHRPSSLQAASTPQ has a protein stability index of 2.34. With YIGTHEYPHFSHRPSGLQAASTPQ the protein stability index was 1.62. Work on YIGTHEYPHFSHRPSPLQAASTPQ yielded a protein stability index of 2.14. In the case of YIGTHEYPHFSHRPSKLQAASTPQ, the protein stability index is reported as 2.08. YIGTHEYPHFSHRPSLLQAASTPQ gave a protein stability index of 2.22. YIGTHEYPHFSHRPSCLQAASTPQ showed a protein stability index of 1.68. YIGTHEYPHFSHRPSMLQAASTPQ showed a protein stability index of 1.42. In the case of YIGTHEYPHFSHRPSALQAASTPQ, the protein stability index is reported as 2.29. Variant YIGTHEYPHFSHRPSFLQAASTPQ has a protein stability index of 1.92. In the case of YIGTHEYPHFSHRPSDLQAASTPQ, the protein stability index is reported as 2.13. Variant YIGTHEYPHFSHRPSYLQAASTPQ has a protein stability index of 1.98. For YIGTHEYPHFSHRPSWLQAASTPQ, the protein stability index was 2.23. With YIGTHEYPHFSHRPSQLQAASTPQ the protein stability index was 2.3. For YIGTHEYPHFSHRPSILQAASTPQ, the protein stability index was 1.6. For YIGTHEYPHFSHRPSELQAASTPQ, the protein stability index was 2.46. With YIGTHEYPHFSHRPSVLQAASTPQ the protein stability index was 1.73. In the case of YIGTHEYPHFSHRPSTLQPASTPQ, the protein stability index is reported as 2.11. Variant YIGTHEYPHFSHRPSTLQVASTPQ has a protein stability index of 1.81. YIGTHEYPHFSHRPSTLQGASTPQ showed a protein stability index of 1.98. YIGTHEYPHFSHRPSTLQQASTPQ gave a protein stability index of 2.04. In the case of YIGTHEYPHFSHRPSTLQTASTPQ, the protein stability index is reported as 1.72. Variant YIGTHEYPHFSHRPSTLQLASTPQ has a protein stability index of 1.85. Variant YIGTHEYPHFSHRPSTLQNASTPQ has a protein stability index of 1.9. With YIGTHEYPHFSHRPSTLQCASTPQ the protein stability index was 2.07. With YIGTHEYPHFSHRPSTLQEASTPQ the protein stability index was 2.58. Variant YIGTHEYPHFSHRPSTLQMASTPQ has a protein stability index of 2.15. Variant YIGTHEYPHFSHRPSTLQRASTPQ has a protein stability index of 2.29. For YIGTHEYPHFSHRPSTLQFASTPQ, the protein stability index was 1.99. YIGTHEYPHFSHRPSTLQYASTPQ showed a protein stability index of 2.42. Work on YIGTHEYPHFSHRPSTLQDASTPQ yielded a protein stability index of 2.3. Work on YIGTHEYPHFSHRPSTLQWASTPQ yielded a protein stability index of 1.28. In the case of YIGTHEYPHFSHRPSTLQSASTPQ, the protein stability index is reported as 1.9. YIGTHEYPHFSHRPSTLQHASTPQ showed a protein stability index of 1.89. For YIGTHEYPHFSHRPSTLQIASTPQ, the protein stability index was 2.04. YIGTHEYPHFSHRPSTLQKASTPQ gave a protein stability index of 1.68. With YIGTHEYPHFSHRPSTMQAASTPQ the protein stability index was 2.24. With YIGTHEYPHFSHRPSTGQAASTPQ the protein stability index was 2.17. For YIGTHEYPHFSHRPSTKQAASTPQ, the protein stability index was 1.79. YIGTHEYPHFSHRPSTYQAASTPQ showed a protein stability index of 2.14. With YIGTHEYPHFSHRPSTDQAASTPQ the protein stability index was 2.41. With YIGTHEYPHFSHRPSTCQAASTPQ the protein stability index was 2.14. Work on YIGTHEYPHFSHRPSTRQAASTPQ yielded a protein stability index of 2. In the case of YIGTHEYPHFSHRPSTWQAASTPQ, the protein stability index is reported as 2.01. YIGTHEYPHFSHRPSTAQAASTPQ gave a protein stability index of 1.84. YIGTHEYPHFSHRPSTEQAASTPQ showed a protein stability index of 2.06. YIGTHEYPHFSHRPSTVQAASTPQ gave a protein stability index of 2.3. YIGTHEYPHFSHRPSTPQAASTPQ showed a protein stability index of 2.5. YIGTHEYPHFSHRPSTFQAASTPQ showed a protein stability index of 1.83. Work on YIGTHEYPHFSHRPSTSQAASTPQ yielded a protein stability index of 2.12. Variant YIGTHEYPHFSHRPSTTQAASTPQ has a protein stability index of 1.98. Work on YIGTHEYPHFSHRPSTQQAASTPQ yielded a protein stability index of 2.29. Variant YIGTHEYPHFSHRPSTNQAASTPQ has a protein stability index of 2.42. Work on YIGTHEYPHFSHRPSTIQAASTPQ yielded a protein stability index of 1.9. YIGTHEYPHFSHRPSTHQAASTPQ showed a protein stability index of 1.93. YIGTHEYPHFSHRPSTLQAISTPQ showed a protein stability index of 2.19. For YIGTHEYPHFSHRPSTLQAMSTPQ, the protein stability index was 1.93. YIGTHEYPHFSHRPSTLQAFSTPQ gave a protein stability index of 1.73. Work on YIGTHEYPHFSHRPSTLQADSTPQ yielded a protein stability index of 1.75. Variant YIGTHEYPHFSHRPSTLQASSTPQ has a protein stability index of 2.11. With YIGTHEYPHFSHRPSTLQAQSTPQ the protein stability index was 1.93. YIGTHEYPHFSHRPSTLQAWSTPQ gave a protein stability index of 2.43. For YIGTHEYPHFSHRPSTLQAPSTPQ, the protein stability index was 1.97. Work on YIGTHEYPHFSHRPSTLQANSTPQ yielded a protein stability index of 2.08. YIGTHEYPHFSHRPSTLQAHSTPQ gave a protein stability index of 1.64. For YIGTHEYPHFSHRPSTLQAKSTPQ, the protein stability index was 2.17. Variant YIGTHEYPHFSHRPSTLQAGSTPQ has a protein stability index of 1.88. Work on YIGTHEYPHFSHRPSTLQARSTPQ yielded a protein stability index of 1.82. YIGTHEYPHFSHRPSTLQAESTPQ showed a protein stability index of 2.56. Variant YIGTHEYPHFSHRPSTLQACSTPQ has a protein stability index of 1.84. Work on YIGTHEYPHFSHRPSTLQATSTPQ yielded a protein stability index of 2.04. Variant YIGTHEYPHFSHRPSTLQALSTPQ has a protein stability index of 2.39. YIGTHEYPHFSHRPSTLQAVSTPQ showed a protein stability index of 1.79.
